According to paper PMC9171633 (Proceedings of the National Academy of Sciences of the …, 2022):

Target: KRas WT G domain (UniProt P01116-1 1-166)
Experiment: pull-down

B1: GST-RBD (domain or fragment)
chain: GLTSKESLFVRINAAHGFSLIQVDNTKVTMKEILLKAVKRRKGSQKVSGPQYRLEKQSEPNVAVDLDSTLESQSAWEFCLVRENSSRAD
binding result: binds
